Molecular target: purified human complement Factor H (human) (UniProt P08603)
Test: steady state fluorescence titration of purified human Factor H

Chain of purified human complement Factor H (human) (P08603 19-1231 limits assumed): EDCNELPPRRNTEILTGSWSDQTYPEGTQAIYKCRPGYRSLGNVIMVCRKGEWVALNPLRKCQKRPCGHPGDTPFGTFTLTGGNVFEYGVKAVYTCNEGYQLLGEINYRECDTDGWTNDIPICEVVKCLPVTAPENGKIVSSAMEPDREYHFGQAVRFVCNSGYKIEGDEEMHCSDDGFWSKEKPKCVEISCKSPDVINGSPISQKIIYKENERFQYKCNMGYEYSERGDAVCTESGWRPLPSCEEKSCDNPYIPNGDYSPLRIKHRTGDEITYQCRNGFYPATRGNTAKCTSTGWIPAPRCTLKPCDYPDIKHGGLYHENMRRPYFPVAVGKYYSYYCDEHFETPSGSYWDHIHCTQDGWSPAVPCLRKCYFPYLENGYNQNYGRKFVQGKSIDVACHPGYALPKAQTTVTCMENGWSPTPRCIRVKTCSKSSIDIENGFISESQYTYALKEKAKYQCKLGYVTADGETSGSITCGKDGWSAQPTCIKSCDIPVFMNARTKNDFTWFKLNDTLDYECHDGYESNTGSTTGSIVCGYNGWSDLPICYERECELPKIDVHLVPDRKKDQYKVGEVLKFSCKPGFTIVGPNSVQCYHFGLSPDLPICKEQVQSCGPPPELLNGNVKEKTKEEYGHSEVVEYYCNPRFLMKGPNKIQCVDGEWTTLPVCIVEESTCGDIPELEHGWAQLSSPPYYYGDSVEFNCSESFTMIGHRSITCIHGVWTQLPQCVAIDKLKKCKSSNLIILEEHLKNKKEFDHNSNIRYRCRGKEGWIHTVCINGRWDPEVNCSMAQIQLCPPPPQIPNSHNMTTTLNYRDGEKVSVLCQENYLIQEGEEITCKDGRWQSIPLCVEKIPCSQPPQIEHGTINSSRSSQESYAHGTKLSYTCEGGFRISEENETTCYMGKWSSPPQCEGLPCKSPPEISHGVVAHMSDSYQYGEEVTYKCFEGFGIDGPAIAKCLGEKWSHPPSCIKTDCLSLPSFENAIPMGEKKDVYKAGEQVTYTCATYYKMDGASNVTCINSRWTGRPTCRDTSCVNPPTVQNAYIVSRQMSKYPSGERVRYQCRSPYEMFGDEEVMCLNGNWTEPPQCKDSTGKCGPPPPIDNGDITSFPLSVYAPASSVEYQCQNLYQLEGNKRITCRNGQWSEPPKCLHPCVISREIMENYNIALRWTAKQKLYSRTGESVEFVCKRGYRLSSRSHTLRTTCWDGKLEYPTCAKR

stoichiometry (OPN:Factor H): 1 molar ratio
Substance: recombinant osteopontin (rOPN) (from UniProt P10451 17-314) (ligand)

Reference: patent EP1169642B1
